Results as given in patent US20170143798A1.

T1: human IL-22 receptor (IL-22R1) on human LS174T cells and human islets (human) (UniProt Q8N6P7)
T1 sequence (looked up): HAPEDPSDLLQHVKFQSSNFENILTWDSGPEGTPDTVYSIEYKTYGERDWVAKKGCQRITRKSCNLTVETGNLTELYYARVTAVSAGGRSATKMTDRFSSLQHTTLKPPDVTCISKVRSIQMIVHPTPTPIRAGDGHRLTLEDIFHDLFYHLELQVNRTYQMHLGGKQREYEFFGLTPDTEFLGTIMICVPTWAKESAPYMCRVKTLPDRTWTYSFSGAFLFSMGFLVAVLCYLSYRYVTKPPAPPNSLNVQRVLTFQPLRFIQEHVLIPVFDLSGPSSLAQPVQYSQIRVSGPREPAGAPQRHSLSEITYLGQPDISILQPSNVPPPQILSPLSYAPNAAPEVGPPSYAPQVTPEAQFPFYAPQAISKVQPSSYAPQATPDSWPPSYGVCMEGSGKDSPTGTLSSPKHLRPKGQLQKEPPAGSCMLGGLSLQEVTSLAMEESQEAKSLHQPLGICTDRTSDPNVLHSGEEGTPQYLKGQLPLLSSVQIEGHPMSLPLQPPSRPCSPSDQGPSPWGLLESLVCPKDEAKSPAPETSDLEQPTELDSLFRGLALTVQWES


How the values were obtained:
[1] = target: mouse IL-22 receptor (IL-22R1) on murine MIN6N8 β-cells and murine islets (mouse) (UniProt Q80XZ4); test: cell-based or functional assay
[2] = target: T1, human IL-22 receptor (IL-22R1) on human LS174T cells and human islets (human); test: cell-based or functional assay

Sequence of UniProt Q80XZ4 (Q80XZ4 16-581): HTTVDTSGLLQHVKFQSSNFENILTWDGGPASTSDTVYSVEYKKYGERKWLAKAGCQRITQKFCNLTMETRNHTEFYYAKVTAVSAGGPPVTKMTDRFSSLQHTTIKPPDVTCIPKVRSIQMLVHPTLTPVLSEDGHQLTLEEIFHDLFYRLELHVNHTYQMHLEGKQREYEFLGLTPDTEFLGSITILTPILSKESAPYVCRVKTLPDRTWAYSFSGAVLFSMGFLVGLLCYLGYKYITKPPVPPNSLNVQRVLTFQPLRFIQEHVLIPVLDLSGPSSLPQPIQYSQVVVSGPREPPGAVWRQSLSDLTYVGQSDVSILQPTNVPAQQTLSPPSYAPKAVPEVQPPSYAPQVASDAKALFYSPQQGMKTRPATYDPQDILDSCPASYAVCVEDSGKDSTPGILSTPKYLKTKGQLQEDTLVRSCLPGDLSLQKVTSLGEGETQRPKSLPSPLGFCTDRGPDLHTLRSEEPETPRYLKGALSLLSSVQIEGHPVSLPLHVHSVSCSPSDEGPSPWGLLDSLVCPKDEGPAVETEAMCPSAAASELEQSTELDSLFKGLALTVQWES

reduction of ER stress (ERAI-sXBP1 reporter) in murine MIN6N8 cells with 0.5 mM palmitate; amount needed against recombinant mouse IL-22 [1] [fold]	suppression of oxidative stress (nitrite production) in human LS174T cells with 0.5 mM palmitate; concentration needed against human recombinant IL-22 [2] [fold]	Molecule
16		recombinant human IL-22 (from UniProt Q9GZX6 34-179) (ligand)
	64	recombinant mouse IL-22 (ligand, UniProt Q9JJY9 34-179, looked up) LPVNTRCKLEVSNFQQPYIVNRTFMLAKEASLADNNTDVRLIGEKLFRGVSAKDQCYLMKQVLNFTLEDVLLPQSDRFQPYMQEVVPFLTKLSNQLSSCHISGDDQNIQKNVRRLKETVKKLGESGEIKAIGELDLLFMSLRNACV
